Source: patent EP1724347A2
Where no end group is shown, it is not given here.

These binders were tested against GST-KIX (assay: fluorescence polarization).
Chain of GST-KIX (P45481 586-665): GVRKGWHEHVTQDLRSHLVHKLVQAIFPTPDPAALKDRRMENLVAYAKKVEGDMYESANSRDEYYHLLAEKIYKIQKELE
GMSRVTPGGDDAPVRRLSFFYILRDLYLDAPC(acetamidofluorescein) (designed binder) [unphosphorylated PPKID2] gave a Kd of 7600 nM.
With GASPHTSSGDDAPVRRLSFFDILLDLYLDAPC(acetamidofluorescein) (designed binder, also: phosphorylated, site not given here) [phosphorylated PPKID3] the Kd was 73 nM.
GASPHTSSGDDAPVRRLSFFDILLDLYLDAPC(acetamidofluorescein) (designed binder) [unphosphorylated PPKID3] showed a Kd of 681 nM.
Work on GASDMTYWGDDAPVRRLSFFYILLDLYLDAPC(acetamidofluorescein) (designed binder, also: phosphorylated, site not given here) [phosphorylated PPKID1] yielded a Kd of 31 nM.
GMSRVTPGGDDAPVRRLSFFYILRDLYLDAPC(acetamidofluorescein) (designed binder, also: phosphorylated, site not given here) [phosphorylated PPKID2] showed a Kd of 280 nM.
